Results published in patent publication US20150344570A1 (published 2015).

B1: GpH7-A5/GpH7-B3 variant H268_02A/GpL16-k0 (antibody, human IgG1, kappa)
heavy 1: not shown
heavy 2: not shown
light: DIVMTQSPLSLPVTPGEPASISCQASESLVHSNRNTYLHWYLQKPGQSPQLLIYKVSNRFSGVPDRFSGSGSGTDFTLKISRVEAEDVGVYYCSQNTHVPPTFGQGTKVEIERTVAAPSVFIFPPSDEQLKSGTASVVCLLNNFYPREAKVQWKVDNALQSGNSQESVTEQDSKDSTYSLSSTLTLSKADYEKHKVYACEVTHQGLSSPVTKSFNRGEC
notes: Heterodimerized anti-glypican-3 IgG1; mutation in the GpH7-B3 chain only; also called He Ab
B2: GpH7-A5/GpH7-B3 variant N325_07I/GpL16-k0 (antibody, human IgG1, kappa)
heavy 1: not shown
heavy 2: not shown
light: B1 light
notes: as for B1
B3: GpH7-A5/GpH7-B3 variant K326_07I/GpL16-k0 (antibody, human IgG1, kappa)
heavy 1: not shown
heavy 2: not shown
light: B1 light
notes: as for B1
B4: GpH7-A5/GpH7-B3 variant L328_07I/GpL16-k0 (antibody, human IgG1, kappa)
heavy 1: not shown
heavy 2: not shown
light: B1 light
notes: as for B1
B5: GpH7-A5/GpH7-B3 variant N325_06M/GpL16-k0 (antibody, human IgG1, kappa)
heavy 1: not shown
heavy 2: not shown
light: B1 light
notes: as for B1
B6: GpH7-A5/GpH7-B3 variant K326_10E/GpL16-k0 (antibody, human IgG1, kappa)
heavy 1: not shown
heavy 2: not shown
light: B1 light
notes: as for B1
B7: GpH7-A5/GpH7-B3 variant N325_08L/GpL16-k0 (antibody, human IgG1, kappa)
heavy 1: not shown
heavy 2: not shown
light: B1 light
notes: as for B1
B8: GpH7-A5/GpH7-B3 variant S267_10E/GpL16-k0 (antibody, human IgG1, kappa)
heavy 1: not shown
heavy 2: not shown
light: B1 light
notes: as for B1
B9: GpH7-A5/GpH7-B3 variant P238_04F/GpL16-k0 (antibody, human IgG1, kappa)
heavy 1: not shown
heavy 2: not shown
light: B1 light
notes: as for B1
B10: GpH7-A5/GpH7-B3 variant P238_10E/GpL16-k0 (antibody, human IgG1, kappa)
heavy 1: not shown
heavy 2: not shown
light: B1 light
notes: as for B1
B11: GpH7-A5/GpH7-B3 variant P238_08L/GpL16-k0 (antibody, human IgG1, kappa)
heavy 1: not shown
heavy 2: not shown
light: B1 light
notes: as for B1
B12: GpH7-A5/GpH7-B3 variant S267_06M/GpL16-k0 (antibody, human IgG1, kappa)
heavy 1: not shown
heavy 2: not shown
light: B1 light
notes: as for B1
B13: GpH7-A5/GpH7-B3 variant S267_07I/GpL16-k0 (antibody, human IgG1, kappa)
heavy 1: not shown
heavy 2: not shown
light: B1 light
notes: as for B1
B14: GpH7-A5/GpH7-B3 variant S267_04F/GpL16-k0 (antibody, human IgG1, kappa)
heavy 1: not shown
heavy 2: not shown
light: B1 light
notes: as for B1
B15: GpH7-A5/GpH7-B3 variant S267_09D/GpL16-k0 (antibody, human IgG1, kappa)
heavy 1: not shown
heavy 2: not shown
light: B1 light
notes: as for B1
B16: GpH7-A5/GpH7-B3 variant H268_13S/GpL16-k0 (antibody, human IgG1, kappa)
heavy 1: not shown
heavy 2: not shown
light: B1 light
notes: as for B1
B17: GpH7-A5/GpH7-B3 variant K326_08L/GpL16-k0 (antibody, human IgG1, kappa)
heavy 1: not shown
heavy 2: not shown
light: B1 light
notes: as for B1
B18: GpH7-A5/GpH7-B3 variant L328_04F/GpL16-k0 (antibody, human IgG1, kappa)
heavy 1: not shown
heavy 2: not shown
light: B1 light
notes: as for B1
B19: GpH7-A5/GpH7-B3 variant H268_10E/GpL16-k0 (antibody, human IgG1, kappa)
heavy 1: not shown
heavy 2: not shown
light: B1 light
notes: as for B1
B20: GpH7-A5/GpH7-B3 variant S267_03V/GpL16-k0 (antibody, human IgG1, kappa)
heavy 1: not shown
heavy 2: not shown
light: B1 light
notes: as for B1
B21: GpH7-A5/GpH7-B3 variant S267_11K/GpL16-k0 (antibody, human IgG1, kappa)
heavy 1: not shown
heavy 2: not shown
light: B1 light
notes: as for B1
B22: GpH7-A5/GpH7-B3 variant L328_11K/GpL16-k0 (antibody, human IgG1, kappa)
heavy 1: not shown
heavy 2: not shown
light: B1 light
notes: as for B1
B23: GpH7-A5/GpH7-B3 variant S239_09D/GpL16-k0 (antibody, human IgG1, kappa)
heavy 1: not shown
heavy 2: not shown
light: B1 light
notes: as for B1
B24: GpH7-A5/GpH7-B3 variant K326_09D/GpL16-k0 (antibody, human IgG1, kappa)
heavy 1: not shown
heavy 2: not shown
light: B1 light
notes: as for B1
B25: GpH7-A5/GpH7-B3 variant L328_12R/GpL16-k0 (antibody, human IgG1, kappa)
heavy 1: not shown
heavy 2: not shown
light: B1 light
notes: as for B1
B26: GpH7-A5/GpH7-B3 variant S267_02A/GpL16-k0 (antibody, human IgG1, kappa)
heavy 1: not shown
heavy 2: not shown
light: B1 light
notes: as for B1
B27: GpH7-A5/GpH7-B3 variant L328_09D/GpL16-k0 (antibody, human IgG1, kappa)
heavy 1: not shown
heavy 2: not shown
light: B1 light
notes: as for B1
B28: GpH7-A5/GpH7-B3 variant N325_20W/GpL16-k0 (antibody, human IgG1, kappa)
heavy 1: not shown
heavy 2: not shown
light: B1 light
notes: as for B1
B29: GpH7-A5/GpH7-B3 variant P238_15Y/GpL16-k0 (antibody, human IgG1, kappa)
heavy 1: not shown
heavy 2: not shown
light: B1 light
notes: as for B1
B30: GpH7-A5/GpH7-B3 variant L328_10E/GpL16-k0 (antibody, human IgG1, kappa)
heavy 1: not shown
heavy 2: not shown
light: B1 light
notes: as for B1
B31: GpH7-A5/GpH7-B3 variant H268_09D/GpL16-k0 (antibody, human IgG1, kappa)
heavy 1: not shown
heavy 2: not shown
light: B1 light
notes: as for B1
B32: GpH7-A5/GpH7-B3 variant S239_10E/GpL16-k0 (antibody, human IgG1, kappa)
heavy 1: not shown
heavy 2: not shown
light: B1 light
notes: as for B1
B33: GpH7-A5/GpH7-B3 variant S267_12R/GpL16-k0 (antibody, human IgG1, kappa)
heavy 1: not shown
heavy 2: not shown
light: B1 light
notes: as for B1
B34: GpH7-A5/GpH7-B3 variant P271_01G/GpL16-k0 (antibody, human IgG1, kappa)
heavy 1: not shown
heavy 2: not shown
light: B1 light
notes: as for B1
B35: GpH7-A5/GpH7-B3 variant P238_09D/GpL16-k0 (antibody, human IgG1, kappa)
heavy 1: not shown
heavy 2: not shown
light: B1 light
notes: as for B1

Biological target: T1, FcγRIIa R (human, UniProt P12318 34-217)
T1 construct: extracellular domain; also called FcgRIIa R type; 2aR; not shown: His tag at the C terminus
T1 sequence (looked up): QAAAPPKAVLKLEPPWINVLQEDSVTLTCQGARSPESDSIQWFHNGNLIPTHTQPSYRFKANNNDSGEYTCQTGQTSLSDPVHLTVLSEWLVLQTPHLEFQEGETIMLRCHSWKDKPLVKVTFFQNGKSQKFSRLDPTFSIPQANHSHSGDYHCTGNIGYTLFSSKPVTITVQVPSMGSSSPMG
Experiment: SPR, relative to GpH7-A5/GpH7-B3/GpL16-k0

Row | Binder | He/Con_2aR
1 | B1 | 133 control = 100
2 | B2 | 133 control = 100
3 | B3 | 147 control = 100
4 | B4 | 124 control = 100
5 | B5 | 152 control = 100
6 | B6 | 148 control = 100
7 | B7 | 144 control = 100
8 | B8 | 175 control = 100
9 | B9 | 174 control = 100
10 | B10 | 151 control = 100
11 | B11 | 140 control = 100
12 | B12 | 122 control = 100
13 | B13 | 111 control = 100
14 | B14 | 37.8 control = 100
15 | B15 | 173 control = 100
16 | B16 | 127 control = 100
17 | B17 | 137 control = 100
18 | B18 | 138 control = 100

Row | Binder | He/Con_2aR
19 | B19 | 148 control = 100
20 | B20 | 116 control = 100
21 | B21 | 3.6 control = 100
22 | B22 | 2.5 control = 100
23 | B23 | 137 control = 100
24 | B24 | 148 control = 100
25 | B25 | 5 control = 100
26 | B26 | 155 control = 100
27 | B27 | 119 control = 100
28 | B28 | 134 control = 100
29 | B29 | 156 control = 100
30 | B30 | 105 control = 100
31 | B31 | 149 control = 100
32 | B32 | 135 control = 100
33 | B33 | 3.6 control = 100
34 | B34 | 144 control = 100
35 | B35 | 148 control = 100

Biological target: T2, FcγRIIb (human, UniProt P31994 43-217)
T2 construct: extracellular domain; also called FcgRIIb; 2b; not shown: His tag at the C terminus
T2 sequence (looked up): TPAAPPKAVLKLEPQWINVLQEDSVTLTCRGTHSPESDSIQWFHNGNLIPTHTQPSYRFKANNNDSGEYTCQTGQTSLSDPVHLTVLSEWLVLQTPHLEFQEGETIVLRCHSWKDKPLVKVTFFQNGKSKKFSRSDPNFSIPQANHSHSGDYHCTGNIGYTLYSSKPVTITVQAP
Experiment: SPR, relative to GpH7-A5/GpH7-B3/GpL16-k0

Row | Binder | He/Con_2b
36 | B1 | 167 control = 100
37 | B2 | 171 control = 100
38 | B3 | 199 control = 100
39 | B4 | 160 control = 100
40 | B5 | 217 control = 100
41 | B6 | 200 control = 100
42 | B7 | 197 control = 100
43 | B8 | 379 control = 100
44 | B9 | 312 control = 100
45 | B10 | 232 control = 100
46 | B11 | 204 control = 100
47 | B12 | 210 control = 100
48 | B13 | 192 control = 100
49 | B14 | 48 control = 100
50 | B15 | 310 control = 100
51 | B16 | 160 control = 100
52 | B17 | 177 control = 100
53 | B18 | 219 control = 100

Row | Binder | He/Con_2b
54 | B19 | 230 control = 100
55 | B20 | 192 control = 100
56 | B21 | 12.2 control = 100
57 | B22 | 7.5 control = 100
58 | B23 | 206 control = 100
59 | B24 | 193 control = 100
60 | B25 | 9.2 control = 100
61 | B26 | 243 control = 100
62 | B27 | 199 control = 100
63 | B28 | 169 control = 100
64 | B29 | 218 control = 100
65 | B30 | 172 control = 100
66 | B31 | 239 control = 100
67 | B32 | 181 control = 100
68 | B33 | 11.3 control = 100
69 | B34 | 193 control = 100
70 | B35 | 221 control = 100

Biological target: T1, FcγRIIa R
Experiment: SPR; He/Con_2aR divided by He/Con_2b (FcγRIIa R over FcγRIIb)

Row | Binder | He_2aR/2b
71 | B1 | 0.8 ratio
72 | B2 | 0.78 ratio
73 | B3 | 0.74 ratio
74 | B4 | 0.78 ratio
75 | B5 | 0.7 ratio
76 | B6 | 0.74 ratio
77 | B7 | 0.73 ratio
78 | B8 | 0.46 ratio
79 | B9 | 0.56 ratio
80 | B10 | 0.65 ratio
81 | B11 | 0.68 ratio
82 | B12 | 0.58 ratio
83 | B13 | 0.58 ratio
84 | B14 | 0.79 ratio
85 | B15 | 0.56 ratio
86 | B16 | 0.8 ratio
87 | B17 | 0.77 ratio
88 | B18 | 0.63 ratio

Row | Binder | He_2aR/2b
89 | B19 | 0.64 ratio
90 | B20 | 0.61 ratio
91 | B21 | 0.3 ratio
92 | B22 | 0.33 ratio
93 | B23 | 0.66 ratio
94 | B24 | 0.77 ratio
95 | B25 | 0.54 ratio
96 | B26 | 0.64 ratio
97 | B27 | 0.6 ratio
98 | B28 | 0.79 ratio
99 | B29 | 0.72 ratio
100 | B30 | 0.61 ratio
101 | B31 | 0.62 ratio
102 | B32 | 0.75 ratio
103 | B33 | 0.32 ratio
104 | B34 | 0.75 ratio
105 | B35 | 0.67 ratio
